Experimental findings from CN114456267A are described below.

The test has as its target T1, 重组人CD73蛋白 (human) (UniProt P21589).
T1 sequence (looked up): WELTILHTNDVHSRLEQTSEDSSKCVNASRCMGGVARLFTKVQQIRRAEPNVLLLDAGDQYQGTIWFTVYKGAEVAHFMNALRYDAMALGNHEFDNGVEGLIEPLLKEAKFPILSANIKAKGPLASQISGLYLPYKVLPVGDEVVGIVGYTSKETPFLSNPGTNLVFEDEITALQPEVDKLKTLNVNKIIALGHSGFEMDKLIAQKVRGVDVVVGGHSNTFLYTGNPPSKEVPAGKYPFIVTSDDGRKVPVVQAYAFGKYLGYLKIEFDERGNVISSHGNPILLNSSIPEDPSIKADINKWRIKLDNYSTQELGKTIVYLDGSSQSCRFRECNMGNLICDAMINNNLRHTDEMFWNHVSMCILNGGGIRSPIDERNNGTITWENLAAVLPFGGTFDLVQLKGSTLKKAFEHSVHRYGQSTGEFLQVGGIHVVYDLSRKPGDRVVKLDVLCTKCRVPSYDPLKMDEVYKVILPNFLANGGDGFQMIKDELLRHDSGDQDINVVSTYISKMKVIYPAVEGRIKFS
In words: ELISA, plate coated with 1 μg/mL recombinant human CD73, anti-human IgG-HRP detection.

B1: 抗CD73人源化单克隆抗体5A4 (antibody, part only; not given: Light chain variable region, part only)
VH: SICFEGKPDMNQRDKEDHMRVFMNSWDDWYDVKLWHCIDFERAHRPQHYPIMAQVQLVQSGAEVKKPGASVKVSCKASGYSFTDYNMYWVRQAPGQGLEWMGYIDPYNGDASYAQKFQGRVTMTRDTSTSTVYMELSSLRSEDTAVYYCAKTDYWGQGTTLTVSSCLAKLPCGSHTWVWWQEMIQNAPWCVQPTHDHWAPAGWNHGCCILAHAENIQGAQWFAY
With B1, the 亲和力 (affinity) is 8.3e-13 mol/L.
